This assay deals with ZZ-CBM3 (Staphylococcus aureus). Kind of assay: pull-down; ZZ-CBM3 pre-anchored on discs of cellulose hydrogel (8Cell, 14Cell, 18Cell; 5 mm, 30 mg); 100 uL of IgG (0.312-10.0 uM) in TST buffer incubated 18 h at 37 °C; free IgG in the supernatant by absorbance at 280 nm (NanoDrop), bound IgG by mass balance; triplicates.

In turn, “Human normal immunoglobulin (IgG) (antibody)” registered a grafting yield relative to the initial amount contacted with the modified hydrogels of 26 to 89% and a stoichiometry N (mol IgG per mol ZZ-CBM3) of 1.
